We go through two molecules from patent US20160347848A1 (AstraZeneca / MedImmune, published 2016).

Holding throughout (assay): not described
One test addresses mouse PD-L1 (mouse, UniProt Q9EP73 19-239, limits assumed).
The target of a further test is T1, human OX40 (human, UniProt P43489 29-277).
T1 construct: The form used for the Y182A statement ('native') is not described; also called native human OX40; CD134
T1 sequence: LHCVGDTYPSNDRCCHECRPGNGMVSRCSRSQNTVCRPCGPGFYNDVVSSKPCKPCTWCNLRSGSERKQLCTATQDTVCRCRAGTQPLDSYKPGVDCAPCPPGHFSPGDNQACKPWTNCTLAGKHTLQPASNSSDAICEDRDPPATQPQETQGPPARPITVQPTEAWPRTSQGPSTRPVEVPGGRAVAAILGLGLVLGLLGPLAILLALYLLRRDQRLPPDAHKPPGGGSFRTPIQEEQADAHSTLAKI

For the next test, the target named is T2, mouse OX40 (mouse, UniProt P47741 20-272, limits assumed).
T2 construct: also called native mouse OX40
T2 sequence (looked up): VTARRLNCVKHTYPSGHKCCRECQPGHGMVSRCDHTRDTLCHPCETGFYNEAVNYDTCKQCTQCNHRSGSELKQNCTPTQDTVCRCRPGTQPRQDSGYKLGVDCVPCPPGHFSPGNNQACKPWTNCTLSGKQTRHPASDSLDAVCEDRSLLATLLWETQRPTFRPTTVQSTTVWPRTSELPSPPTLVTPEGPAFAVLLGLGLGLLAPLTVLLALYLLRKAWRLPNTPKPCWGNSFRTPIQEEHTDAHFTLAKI

Sequence of mouse PD-L1 (Q9EP73 19-239 limits assumed): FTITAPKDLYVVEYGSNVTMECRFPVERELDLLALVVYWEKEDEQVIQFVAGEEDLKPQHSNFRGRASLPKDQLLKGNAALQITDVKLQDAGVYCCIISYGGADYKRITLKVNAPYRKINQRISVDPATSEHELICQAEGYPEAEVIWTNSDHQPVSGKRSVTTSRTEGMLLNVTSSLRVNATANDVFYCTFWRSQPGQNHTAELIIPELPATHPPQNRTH

B1: MEDI4736 (antibody, human IgG1, V domains shown)
VH: EVQLVESGGGLVQPGGSLRLSCAASGFTFSRYWMSWVRQAPGKGLEWVANIKQDGSEKYYVDSVKGRFTISRDNAKNSLYLQMNSLRAEDTAVYYCAREGGWFGELAFDYWGQGTLVTVSS
VL: EIVLTQSPGTLSLSPGERATLSCRASQRVSSSYLAWYQQKPGQAPRLLIYDASSRATGIPDRFSGSGSGTDFTLTISRLEPEDFAVYYCQQYGSLPWTFGQGTKVEIK
notes: also called 2.14H9OPT
For B1, the binding result in the test with mouse PD-L1 is listed as “no binding”.

B2: Y182A mutant mouse OX40L mouse IgG1 fusion protein control (Fc fusion, UniProt P43488 51-198, looked up)
chain: SSSPAKDPPIQRLRGAVTRCEDGQLFISSYKNEYQTMEVQNNSVVIKCDGLYIIYLKGSFFQEVKIDLHFREDHNPISIPMLNDGRRIVFTVVASLAFKDKVYLTVNAPDTLCEHLQINDGELIVVQLTPGACAPEGSYHSTVNQVPL
notes: also called OX40L FP Y182A; mOX40L FP Y182A; not shown: mouse IgG1 Fc domain and any linker or trimerization domain
With B2, the binding result with human OX40 and in the test with mouse OX40 was “no binding” throughout.
